Publication doi:10.1101/558098
Where two headings read alike, the source gives them in different places.

Assays:
Test in all cases: EMSA
YBX1 [1] = target: T1, YBX1 (human, UniProt P67809 1-324)
IMP1 [2] = target: T2, IMP1 (human, UniProt Q9NZI8 1-577)
YBX1 [3] = target: T1, YBX1; remark: listed apart in the source
IMP1 [4] = target: T2, IMP1; remark: listed apart in the source
IMP1 [5] = target: T2, IMP1; remark: listed apart in the source
YBX1 [6] = target: T1, YBX1; remark: listed apart in the source
IMP1_KH1-4mut = IMP1_KH1-4mut (human, UniProt Q9NZI8 1-577, K213E;E214L;K294E;E295L;K423E;K424L;K505E;G506L)
Chain of IMP1_KH1-4mut (Q9NZI8 whole entry K213E/E214L/K294E/E295L/K423E/K424L/K505E/G506L): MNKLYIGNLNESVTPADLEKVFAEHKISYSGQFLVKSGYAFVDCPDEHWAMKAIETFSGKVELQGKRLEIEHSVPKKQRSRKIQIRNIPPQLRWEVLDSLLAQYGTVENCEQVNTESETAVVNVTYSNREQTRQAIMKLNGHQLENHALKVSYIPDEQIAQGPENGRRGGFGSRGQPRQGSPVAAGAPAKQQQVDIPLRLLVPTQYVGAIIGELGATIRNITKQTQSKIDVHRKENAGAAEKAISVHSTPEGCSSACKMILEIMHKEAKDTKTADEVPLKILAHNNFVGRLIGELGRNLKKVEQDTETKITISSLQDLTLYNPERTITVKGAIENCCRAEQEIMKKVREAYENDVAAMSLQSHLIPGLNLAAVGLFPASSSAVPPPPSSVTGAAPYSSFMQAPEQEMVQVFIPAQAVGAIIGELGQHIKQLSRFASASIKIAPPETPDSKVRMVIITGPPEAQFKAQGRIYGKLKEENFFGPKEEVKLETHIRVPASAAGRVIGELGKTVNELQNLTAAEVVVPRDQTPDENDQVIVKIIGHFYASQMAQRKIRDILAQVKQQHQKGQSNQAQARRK

YBX1 [7] = target: T1, YBX1; remark: listed apart in the source
IMP1 [8] = target: T2, IMP1; remark: listed apart in the source

T2 sequence (Q9NZI8 whole entry): as the sequence (Q9NZI8 whole entry K213E/E214L/K294E/E295L/K423E/K424L/K505E/G506L) above, with E213K, L214E, E294K, L295E, E423K, L424K, E505K, L506G counted along it
T1 sequence (P67809 whole entry): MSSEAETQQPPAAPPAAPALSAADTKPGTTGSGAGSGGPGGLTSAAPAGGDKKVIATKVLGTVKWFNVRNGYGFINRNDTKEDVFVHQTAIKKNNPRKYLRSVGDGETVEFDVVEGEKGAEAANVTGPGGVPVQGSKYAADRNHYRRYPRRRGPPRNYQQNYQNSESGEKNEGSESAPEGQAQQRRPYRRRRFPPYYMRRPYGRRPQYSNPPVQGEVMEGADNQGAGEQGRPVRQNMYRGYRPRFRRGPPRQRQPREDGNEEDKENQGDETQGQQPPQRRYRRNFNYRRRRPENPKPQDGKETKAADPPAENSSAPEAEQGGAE

B1: C-MYC 3'UTR (ssRNA)
RNA: GGAAAAGUAAGGAAAACGAUUCCUUCUAACAGAAAUGUCCUGAGCAAUCACCUAUGAACUUGUUUCAAAUGCAUGAUCAAAUGCAACCUCACAACCUUGGCUGAGUCUUGAGACUGAAAGAUUUAGCCAUAAUGUAAACUGCCUCAAAUUGGACUUUGGGCAUAAAAGAACUUUUUUAUGCUUACCAUCUUUUUUUUUUCUUUAACAGAUUUGUAUUUAAGAAUUG
What does the source list for B1?
binding result (YBX1 [1]): binds; binding result (IMP1 [2]): binds

B2: ACTB 3'UTR (ssRNA)
RNA: GGCGGACUAUGACUUAGUUGCGUUACACCCUUUCUUGACAAAACCUAACUUGCGCAGAAAACAAGAUGAGAUUGGCAUGGCUUUAUUUGUUUUUUUUGUUUUGUUUUGGUUUUUUUUUUUUUUUUGGCUUGACUCAGGAUUUAAAAACUGGAACGGUGAAGGUGACAGCAGUCGGUUGGAGCGAGCAUCCCCCAAAGUUCACAAUGUGGCCGAGGACUUUGAUUGCACAUUGUU
Does B2 bind (YBX1 [3])?
Result: binds

Does B2 bind (IMP1 [4])?
Result: binds

B3: C-MYC CRD (ssRNA)
RNA: GGACCAGAUCCCGGAGUUGGAAAACAAUGAAAAGGCCCCCAAGGUAGUUAUCCUUAAAAAAGCCACAGCAUACAUCCUGUCCGUCCAAGCAGAGGAGCAAAAGCUCAUUUCUGAAGAGGACUUGUUGCGGAAACGACGAGAACAGUUGAAACACAAACUUGAACAGCUACGGAACUCUUGUGCG
What does the source list for B3?
binding result (IMP1 [5]): binds; binding result (YBX1 [6]): binds; binding signal (IMP1_KH1-4mut): ~10 fold reduction vs wild-type IMP1

B4: ACTB exon 5 (ssRNA)
RNA: not shown
What does the source list for B4?
binding result (YBX1 [7]): binds; binding result (IMP1 [8]): no binding
